Consider three proteins from PMC6452516, “Biochemical characterization of three new α-olefin-producing P450 fatty acid decarboxylases with a halophilic property” (Biotechnology for Biofuels, 2019).

What all share (assay): GC of initial substrate consumption, Michaelis-Menten fit
What all share (conditions): 330 μM H2O2 as co-substrate, pH 7.4, 50 mM NaH2PO4, 500 mM NaCl, 10% glycerol, 30 °C, 15–40 nM enzyme

Substrate in data set [1]: CCCCCCCCCCCC(=O)O
In kind it is biochemical, Lacicoccus qingdaonensis. From the text: GC of initial substrate consumption, Michaelis-Menten fit on OleTSQ

Substrate in data set [2]: CCCCCCCCCCCC(=O)O
The data set is classed as biochemical, Jeotgalicoccus aerolatus. The text has this:
GC of initial substrate consumption, Michaelis-Menten fit on OleTJH

Substrate in data set [3]: CCCCCCCCCCCC(=O)O
The data set is classed as biochemical, Jeotgalicoccus sp. ATCC 8456. From the text: GC of initial substrate consumption, Michaelis-Menten fit on OleTJE

As usually defined, the Km is the substrate concentration at which the rate is half of its maximum. As usually defined, the kcat is the maximal rate divided by the concentration of active sites. By kcat/Km is commonly meant the second-order rate constant that governs catalysis at low substrate concentration.

B1: OleTSQ (Lacicoccus qingdaonensis) (protein)
chain: MATIKRDKGLDNSVKVMKQGYLYTTNQRERLGVTDGVFETRALGGKRIIVLSGKDGAELFYDNDKIERSGTLPKRVVNTLFGKGAIHTTTGKVHIDRKALFMSLMTEGNLKYLRELTRNLWFANTQRMESMDQVNVYRESIIVLTKVGTRWAGVQAPEKEIENIATDMDIMIDSFKAIGSAFKGYREAKAARRRVEDWLEDQIIQTRKGKIHPPKGTALYEFAHWKDYKGEPMDSRLCGIDLMNTFRPLIAINRFVAFGALAMYENPVAREKIKQDDDYAYMFAQEVRRFYPFVPYLPAKAKVDFQYKGYEIEKDTMLALDIYGTMHDPNVWEDPNEFYPERFKDWDGSPFDLIPQGGGDYHTNHRCAGEWMTVIIMEETMKYFASRINYDVPEQDLTVDLNSLPGYIKSGFVIENVQENVDRT
notes: recombinant, codon-optimized gene in pET28b (NdeI/XhoI), N-terminal His6 tag, E. coli BL21(DE3), Ni-NTA
For B1, in data set [1], the Km was found to be 35 ± 10 µM, the kcat came to 9.5 ± 0.917 s⁻¹ and the kcat/Km is 267000 M⁻¹ s⁻¹.

B2: OleTJH (Jeotgalicoccus aerolatus) (protein)
chain: MASLKRDKGLDNTLKVMKQGYLYTTNQRNRLNTTVFETKALGGKPFAVVTGKEGAEMFYNNDIVQREGMLPKRIVNTLFGKGAIHTIDGKKHVDRKALFMSLMTEGNLNYVRELTRTLWQANTQRMESMDEVNIYRESIVLLTKVGTRWAGVQAPPEQIERIATDMDIMIDSFKGLGGVFKGYKESKAARRRVEDWLEDQILETRKGNIHPPEGTALYEFAHWEDYLGNPMDSRNCAIDLMNTFRPLIAINRFVSFGLLAMHDNPVSREKIKSEPDYAYKFAQEVRRYYPFVPFLPGKAKTDIDFQGVTIPAGHGLAIDVYGTLHDESLWEDPNEFRPERFEGWDGSPFDLIPQGGGDYWTNHRCAGEWITVIIMEETMKYFAEKVTYDVPEQDLTVDLNSIPGYVKSGFVIKNVQEVVDRR
notes: as for B1
Turning to B2, in data set [2], the Michaelis-Menten constant (Km) was found to be 46 ± 15 µM, the kcat is 15.2 ± 1.88 s⁻¹ and the kcat/Km was 333000 M⁻¹ s⁻¹.

B3: OleTJE (Jeotgalicoccus sp. ATCC 8456) (protein)
chain: MATLKRDKGLDNTLKVLKQGYLYTTNQRNRLNTSVFQTKALGGKPFVVVTGKEGAEMFYNNDVVQREGMLPKRIVNTLFGKGAIHTVDGKKHVDRKALFMSLMTEGNLNYVRELTRTLWHANTQRMESMDEVNIYRESIVLLTKVGTRWAGVQAPPEDIERIATDMDIMIDSFRALGGAFKGYKASKEARRRVEDWLEEQIIETRKGNIHPPEGTALYEFAHWEDYLGNPMDSRTCAIDLMNTFRPLIAINRFVSFGLHAMNENPITREKIKSEPDYAYKFAQEVRRYYPFVPFLPGKAKVDIDFQGVTIPAGVGLALDVYGTTHDESLWDDPNEFRPERFETWDGSPFDLIPQGGGDYWTNHRCAGEWITVIIMEETMKYFAEKITYDVPEQDLEVDLNSIPGYVKSGFVIKNVREVVDRT
notes: purified recombinant P450 from E. coli, His-tagged (Ni-NTA); cloning of this control enzyme not described here
Take B3: in data set [3], the Km was found to be 41 ± 4 µM, the turnover number (kcat) came out at 14.3 ± 0.467 s⁻¹ and the kcat/Km was 350000 M⁻¹ s⁻¹.
